This note sets out measurements from the RNAGym collection of RNA variant scans (doi:10.7554/elife.80360).

B1: Twister Ribozyme (parent)
chain: AACACUGCCAAUGCCGGUCCCAAGCCCGGAUAAAAGUGGAGGGGGCGG

In this data set the parent is B1. Nature of the data set: self-cleavage, relative activity (ratio to wild type); higher = more cleavage; co-transcriptional.
For A23U A35C, the self-cleavage came to 0.71.

With C19U G36C, the self-cleavage was found to be 0.129.

Turning to A2G U18G, the self-cleavage is 0.0967.

For C26A A32U, the self-cleavage is 0.405.

Regarding C21G G28A, the self-cleavage stood at 0.124.

On to A30C A33C, for which the self-cleavage is 0.676.

C26U A35C: the self-cleavage came out at 0.446.

Turning to C5U G29U, the self-cleavage was 0.631.

A11U G29C: the self-cleavage is 1.02.

In the case of G16C A35G, the self-cleavage amounted to 0.483.

With C5G G17U, the self-cleavage turned out to be 0.0612.

In the case of C5G G17C, the self-cleavage was determined as 0.0444.

With A11U G28A, the self-cleavage was 1.02.

A10G C15U: the self-cleavage stood at 0.902.

With G7A G16A, the self-cleavage was found to be 0.226.

For the variant G7A G16U, the self-cleavage stood at 0.161.

C25U G28A: the self-cleavage was found to be 0.713.

Regarding C27A A30C, the self-cleavage was 0.12.

As to C14U C27A, the self-cleavage came to 0.586.

For G38A G48U, the self-cleavage is 1.1.

Consider A40G G43A, for which the self-cleavage was 0.147.

In the case of C15U G41A, the self-cleavage worked out at 0.483.

As for C19A G39A, the self-cleavage worked out at 0.136.

Turning to C3G G7C, the self-cleavage amounted to 0.0501.

As to G16A A32U, the self-cleavage was 0.919.

Turning to C20G G29U, the self-cleavage came out at 0.146.

Take G28U U37G: the self-cleavage was found to be 0.168.

Regarding A30C G44U, the self-cleavage is 0.793.

For C5G G36U, the self-cleavage was 0.724.

Turning to G36U G39C, the self-cleavage came out at 0.15.

G24A U37C: the self-cleavage came to 0.067.

In the case of U18A G28U, the self-cleavage was 0.314.

On to G29U U31C, for which the self-cleavage worked out at 0.972.

On to G24C A30U, for which the self-cleavage is 0.0977.

Turning to A2C G48C, the self-cleavage was 0.0956.

As to C5G G42A, the self-cleavage was determined as 0.108.

For G43A G45C, the self-cleavage is 0.434.

Consider A1C C8G, for which the self-cleavage was 0.187.

U6G A32C: the self-cleavage came out at 0.419.

With C14A C27A, the self-cleavage amounted to 0.31.

For the variant G29U A40U, the self-cleavage came out at 0.145.

On to A4G U12A, for which the self-cleavage worked out at 1.17.

With C3U G45A, the self-cleavage turned out to be 0.422.

As to G38U G41U, the self-cleavage was determined as 0.196.

For A23U G39C, the self-cleavage is 0.0667.

As to C26U G48A, the self-cleavage stood at 0.185.

On to U12A C21U, for which the self-cleavage amounted to 0.164.

For the variant A2U G47A, the self-cleavage came out at 0.292.

As to C5A G42C, the self-cleavage came out at 0.184.

For the variant A22G G38U, the self-cleavage stood at 0.122.

In the case of C27A A34G, the self-cleavage is 0.139.

As to A35C G47C, the self-cleavage was 0.574.

Consider C8U G42U, for which the self-cleavage is 0.133.

With A40U C46A, the self-cleavage is 0.146.

Turning to C14A G43C, the self-cleavage turned out to be 0.182.

Regarding A30U G39U, the self-cleavage came to 0.212.

Consider G38U G44C, for which the self-cleavage was determined as 0.829.

For the variant A22U G28C, the self-cleavage stood at 0.548.

Turning to A34U A40U, the self-cleavage came to 0.141.

Turning to U6A G42U, the self-cleavage stood at 0.163.

Consider A23G G24A, for which the self-cleavage came out at 0.12.

For the variant C26A G29C, the self-cleavage came out at 0.122.

Regarding C26A G29A, the self-cleavage is 0.267.

For A10U A30U, the self-cleavage is 0.922.

As to G7C C26U, the self-cleavage is 0.0512.

With C15U G38A, the self-cleavage is 0.831.

Turning to C14U G45A, the self-cleavage was determined as 0.999.

Take A10C G38C: the self-cleavage is 0.813.

Consider G13A C15U, for which the self-cleavage turned out to be 0.579.

With U6C G36C, the self-cleavage was found to be 0.112.

With A1G A2C, the self-cleavage came to 1.43.

In the case of A4C G45C, the self-cleavage is 0.16.

As to C8A C27A, the self-cleavage came out at 0.0935.

For the variant A1U G45C, the self-cleavage came out at 0.0573.

As to C19G A33C, the self-cleavage stood at 0.0963.

For A34G G44A, the self-cleavage came out at 0.809.

For the variant C27U G41C, the self-cleavage was determined as 0.176.

As to A4G C20U, the self-cleavage turned out to be 1.06.

For the variant G16U C19G, the self-cleavage was found to be 0.342.

For the variant A2C C27A, the self-cleavage was found to be 0.0541.

As for C9U A40C, the self-cleavage came out at 0.161.

For G28U G29C, the self-cleavage came out at 0.928.

For the variant C5A G44C, the self-cleavage amounted to 0.556.

As for A35C, the self-cleavage came to 0.962.

Regarding C15G G28C, the self-cleavage stood at 0.599.

As to A11U A30C, the self-cleavage came to 0.862.

As for A2U A35C, the self-cleavage is 0.745.

As for C8A C26G, the self-cleavage is 0.0829.

As for C15G G24C, the self-cleavage was 0.0723.

In the case of C3A C46G, the self-cleavage came to 0.117.

Turning to C26G, the self-cleavage was determined as 0.449.

C5G A40G: the self-cleavage is 0.182.

As to C5G A40C, the self-cleavage was determined as 0.198.

As to A2G A35G, the self-cleavage worked out at 0.226.

In the case of A22G G43C, the self-cleavage turned out to be 0.154.

As for U6G C25U, the self-cleavage turned out to be 0.252.

With G24U A40C, the self-cleavage turned out to be 0.099.

Turning to C26G G28C, the self-cleavage worked out at 0.142.

For the variant C5G G45U, the self-cleavage turned out to be 0.369.

On to C15A U18A, for which the self-cleavage amounted to 0.0699.

Regarding C14G A34G, the self-cleavage was found to be 0.182.

Take G24A C26U: the self-cleavage is 0.077.

C5U G43C: the self-cleavage came to 0.126.

In the case of C26A A35C, the self-cleavage worked out at 0.572.

Regarding A30G G38C, the self-cleavage was 0.868.

As to A2U G42U, the self-cleavage worked out at 0.172.

Regarding C19A C21U, the self-cleavage was 0.0833.

Take A30C A34C: the self-cleavage turned out to be 0.0893.

A1G U31C: the self-cleavage is 0.409.

Consider A30U G48A, for which the self-cleavage worked out at 1.

A22U U37C: the self-cleavage came to 0.236.

Consider A10U U37A, for which the self-cleavage came to 0.86.

With A2G C46G, the self-cleavage was 0.431.

For U12C A30G, the self-cleavage came out at 0.712.

In the case of A2G A23U, the self-cleavage amounted to 0.0843.

As to C26A G45U, the self-cleavage amounted to 0.136.

In the case of C5U G38U, the self-cleavage was 0.503.

Turning to G17A G42U, the self-cleavage worked out at 0.135.

Consider G16U G39C, for which the self-cleavage turned out to be 0.173.

For the variant C8U C21U, the self-cleavage is 0.0732.

As to C5G G16A, the self-cleavage was 0.341.

Regarding C25U C46G, the self-cleavage stood at 0.762.

In the case of A2C A4C, the self-cleavage was determined as 0.154.

For C21A C27G, the self-cleavage stood at 0.0914.

G17U U37C: the self-cleavage came out at 0.085.

As to G17U A34U, the self-cleavage was found to be 0.159.

For the variant G7U G17A, the self-cleavage was found to be 0.0885.

As to C21A G48A, the self-cleavage came to 0.107.

Turning to G13A A35C, the self-cleavage came out at 1.02.

As for G13A A35G, the self-cleavage was 0.203.

For the variant G13A A35U, the self-cleavage turned out to be 0.978.

Regarding A10G G36U, the self-cleavage amounted to 0.823.

On to U6A C14A, for which the self-cleavage stood at 0.866.

With G41C G47C, the self-cleavage was determined as 0.162.

A35U G41U: the self-cleavage was determined as 0.693.

On to C9A C26G, for which the self-cleavage is 0.0708.

For C5U A22G, the self-cleavage came to 0.113.

For the variant U18G G44U, the self-cleavage was 0.0806.

For the variant C19U A22C, the self-cleavage came to 1.15.

For C27A C46G, the self-cleavage was 0.466.

Regarding C21G G41C, the self-cleavage is 0.577.

Regarding C14U A35U, the self-cleavage turned out to be 1.03.

With C25U U37A, the self-cleavage was found to be 0.392.

On to C3U G48C, for which the self-cleavage stood at 0.484.

Turning to U18G G48U, the self-cleavage was 0.117.

For C26G A34U, the self-cleavage came to 0.15.

For G28C A30G, the self-cleavage was 0.77.

As for C3U G43C, the self-cleavage came out at 0.0646.

Turning to G7A G13C, the self-cleavage was 0.0492.

Turning to U6A A30G, the self-cleavage came to 0.884.

C8U A11U: the self-cleavage was determined as 0.973.

For A35U G39C, the self-cleavage is 0.104.

For the variant G13A A22U, the self-cleavage was determined as 0.424.

Turning to C15A C21A, the self-cleavage was 0.133.

As to A23C G36C, the self-cleavage was 0.102.

In the case of A4C G24A, the self-cleavage was 0.0887.

For C5U G13A, the self-cleavage came out at 0.417.

On to U12A G24U, for which the self-cleavage was determined as 0.172.

As to C8U G29A, the self-cleavage worked out at 0.516.

Consider G13A, for which the self-cleavage stood at 1.05.

As to U6A C15G, the self-cleavage was found to be 0.0866.

Turning to C25G A30C, the self-cleavage was determined as 0.129.

On to A30G G36U, for which the self-cleavage was 0.32.

For the variant C3G A30C, the self-cleavage is 0.167.

As for U18C G45C, the self-cleavage amounted to 0.132.

Consider U12G A32C, for which the self-cleavage worked out at 0.9.

Consider G29A A33G, for which the self-cleavage was found to be 0.845.
